Test system: MS2 coat protein
Experiment: apparent KD of MS2 coat protein; designed switch direction (-1 OFF switch, 1 ON switch): -1; higher = weaker reporter binding
Summary of the method: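 Designed RNA switches were transcribed on Illumina chips by stalled E. coli RNA polymerase and titrated with SNAP-549-labelled MS2 coat protein from 0.7 or 1.5 nM, doubling to 3 µM. Step length ran from 0.8–1.5 h at the lowest concentration to 10–20 min at the highest. The apparent KD is the median over clusters for each design, from curve-fitted normalised cluster fluorescence.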

[1] = Eterna round: R95, input ligand: microRNA oligo, concentration not stated
[2] = input ligand: microRNA oligo, concentration not stated
[3] = Eterna round: R95, input ligand: FMN 200 uM
[4] = Eterna round: R95, input ligand: none

AUUUAGAGAGGAUAUAUUAUGUGAAACAUGAGGAUCACCCAUGUAAUAUGAUGGAUAUAAAUAGAAGGCUCAUUUA [Mat - Exclusion 5 - JL mod - D24] (puzzle: Exclusion 5)
apparent KD of MS2 coat protein [1]: 32.3 nM

ACAUGAGGAUCACCCAUGUGAAAAGAAUGGCUGACACAGAGAUAGGAUAUAGGUGCAUAUCUAACCUAGAAGGGUCAUGACUGG [Deportation 77 - Jieux - Exclusion NG 3] (Eterna round: R96, puzzle: Exclusion NG 3)
apparent KD of MS2 coat protein (input ligand: FMN 200 uM): 23.5 nM | apparent KD of MS2 coat protein [2]: 22.3 nM | apparent KD of MS2 coat protein (input ligand: none): 33 nM

GGUUGGCGAGGAUAUACAUGAGGAUCACCCAUGUGAGAGAAAAAACUGAGGAAGAAAAGUAGAAGGCGCUGACG [salish99_ex3_r3_026] (puzzle: Exclusion 3)
apparent KD of MS2 coat protein [3]: 117 nM | apparent KD of MS2 coat protein [1]: 23.4 nM | apparent KD of MS2 coat protein [4]: 35.5 nM

AUAUUGUGAGGAUAUCAGGUGUGCUAGCGUACUGGUACAUCUGAGAAGGCACAUGAGGAUCACCCAUGUUUCUU [Mat - Exclusion 4 - Mod of JL - D42] (puzzle: Exclusion 4)
apparent KD of MS2 coat protein [1]: 15.2 nM

AUAAUAAAGGAGGAUAUCGUAUCGGAAACGAUACGAGAAGGUCUAACAUGAGGAUCACCCAUGUUCCUCAAUAA [Mat - Exclusion 6 - Eli Mod - D48] (puzzle: Exclusion 6)
apparent KD of MS2 coat protein [3]: 54.5 nM | apparent KD of MS2 coat protein [1]: 35.9 nM | apparent KD of MS2 coat protein [4]: 36.1 nM

UGUUGUCGCGCAGGAUAUGAGGAUCACCCAUAUACAGGAUAUGAAAAGAAGGGUCUGAGGAUUACCCAGAAGGGCGGGACAACU [pwkr exNG2 2xF5 2xFMN.26] (Eterna round: R96, puzzle: Exclusion NG 2)
apparent KD of MS2 coat protein (input ligand: FMN 200 uM): 386 nM | apparent KD of MS2 coat protein [2]: 59.1 nM | apparent KD of MS2 coat protein (input ligand: none): 88 nM

AAUCCUAGCGUAAGGAUAUCAAAACUAUCCCGUUAUGAGAAGGUACAUGAGGAUCACCCAUGUUAAUGGGAUAA [BmEX4 A.19] (Eterna round: R97, puzzle: Brourd's mod of Exclusion 4)
apparent KD of MS2 coat protein (input ligand: FMN 200 uM): 20.2 nM | apparent KD of MS2 coat protein (input ligand: none): 19.3 nM

UGUUGUUACGCAGGAUAUGUAUGAGGAUCACCCAUAAGAGUUGAUGUACCAUGAGGAUCACCCAUGUAGAAGGGCGGGUUAACA [pwkr exNG2 2xF5 1xFMN.9] (Eterna round: R96, puzzle: Exclusion NG 2)
apparent KD of MS2 coat protein (input ligand: FMN 200 uM): 365 nM | apparent KD of MS2 coat protein [2]: 194 nM | apparent KD of MS2 coat protein (input ligand: none): 234 nM

GGUGCGUUUGUGAGGAUAUGCUGGUCCUUGGAUCGGCAGAAGGCACAUGAGGAUCACCCAUGUGGUGUCGUACC [salish99_Bmod_Ex4_035] (puzzle: Brourd's mod of Exclusion 4)
apparent KD of MS2 coat protein [1]: 280 nM

AUCCGACAUGAGGAUCACCCAUGUCAGGAUAUGGACUGACAUCGAAAGGAUGGAAGAACCAGAAGGGACUGGGC [Betiqu] (Eterna round: R96, puzzle: Exclusion 1)
apparent KD of MS2 coat protein (input ligand: FMN 200 uM): 71.7 nM | apparent KD of MS2 coat protein [2]: 17.1 nM | apparent KD of MS2 coat protein (input ligand: none): 20.1 nM

CUGUACUGAGGAUAUACAUGAGGAUCACCCAUGUGUUCCAGCUAGGAAACUAGCAAAAGUAGAAGGCAGUACAG [Mat - Exclusion 3 - Eli Mod - D65] (Eterna round: R97, puzzle: Exclusion 3)
apparent KD of MS2 coat protein (input ligand: FMN 200 uM): 332 nM | apparent KD of MS2 coat protein (input ligand: none): 30.5 nM

AGAUCACAUGAGGAUCACCCAUGUCAGGAUAUCGUCACUGGAGCCUCGGCUCCAGUGACGAGAAGGGAUAAUUA [E1/4-A2] (Eterna round: R97, puzzle: Exclusion 1)
apparent KD of MS2 coat protein (input ligand: FMN 200 uM): 116 nM | apparent KD of MS2 coat protein (input ligand: none): 69 nM

CUUCACCCACCAGAGCUCACCCACAAACCUGCCCUGGUGACAUGAGGAUCACCCAUGUUUUUUGCCCGUCUUAUCUU [Diletibi] (puzzle: Sensor v3, turn-off variant 2)
apparent KD of MS2 coat protein [3]: 42 nM | apparent KD of MS2 coat protein [1]: 241 nM | apparent KD of MS2 coat protein [4]: 46.8 nM

UUUAAGGCUGAGGAUAUGUGGUCCGCCAAAGACAUAGAAGGUAGCACAUGAGGAUCACCCAUGUCACGAAAAGU [Eternabot (L1) Solution 81] (Eterna round: R97, puzzle: Exclusion 6)
apparent KD of MS2 coat protein (input ligand: FMN 200 uM): 54.3 nM | apparent KD of MS2 coat protein (input ligand: none): 52.7 nM

GAUAGAGAGCAGGAUAUCUUGGGUAAGUGUUGUAGAGAAGGGCUCACAUGAGGAUCACCCAUGUGGUCCUAGAU [JL Dibiri mod 08] (puzzle: Exclusion 6)
apparent KD of MS2 coat protein [3]: 33.5 nM | apparent KD of MS2 coat protein [1]: 14.5 nM | apparent KD of MS2 coat protein [4]: 11.3 nM

GAUAGAGAGCAGGAUAUCUUGGGUAAGUAUCGUAGAGAAGGGCUCACAUGAGGAUCACCCAUGUGGUCCUAGAU [JL Dibiri mod 03] (puzzle: Exclusion 6)
apparent KD of MS2 coat protein [1]: 11.5 nM

UCUUAUUGCAAGGAUAUGCUUUUUAUUUCUUUUGCAGAAGGUGCAACAUGAGGAUCACCCAUGUUUCCGGGUAU [JR_E6_Sub034] (puzzle: Exclusion 6)
apparent KD of MS2 coat protein [1]: 23.8 nM

GUUAAACAUGAGGAUCACCCAUGUAAGGAUAUGCUGAGGUAGCGCUGACGUGAAUGAAGCAGAAGGUACAAAUG [Mat - Mod of JL D64] (puzzle: Exclusion 1)
apparent KD of MS2 coat protein [3]: 66.4 nM | apparent KD of MS2 coat protein [1]: 93.3 nM | apparent KD of MS2 coat protein [4]: 62 nM

GCUUGUGGGCAAGGAUAUCCUACGUUGUUCUGGUUCGUGUCUGUCACAUGAGGAUCACCCAUGUGGGAGAAGGUGCCUUUGGUG [Design 62] (Eterna round: R96, puzzle: Exclusion NG 2)
apparent KD of MS2 coat protein (input ligand: FMN 200 uM): 23.2 nM | apparent KD of MS2 coat protein [2]: 9.2 nM | apparent KD of MS2 coat protein (input ligand: none): 15.6 nM

UAAAUGUCAGGAUAUUGUUAAUUUAGUUGUUUGUAUUAGUUCGAGAAGGGACAUGAGGAUCACCCAUGUUAUUU [Ex4 #55] (Eterna round: R97, puzzle: Exclusion 4)
apparent KD of MS2 coat protein (input ligand: FMN 200 uM): 33.6 nM | apparent KD of MS2 coat protein (input ligand: none): 31.9 nM

UACCGGCGGACCGAAGCUUUUUGCUUGUUUUAUACUACAACAUGAGGAUCACCCAUGUGGUGGUGGUCCGUUGUAGU [JL ViennaUCT Bitein mod 1] (puzzle: Sensor v3, turn-off variant 2)
apparent KD of MS2 coat protein [3]: 63.9 nM | apparent KD of MS2 coat protein [1]: 16.7 nM | apparent KD of MS2 coat protein [4]: 58.6 nM

UAGAAACAUGAGGAUCACCCAUGUGAGGAUAUGGCCCGCCCGGCGUGAGCUGGUUUUGUCAGAAGGCGCAUAGG [salish99_ex1_r4_020] (Eterna round: R97, puzzle: Exclusion 1)
apparent KD of MS2 coat protein (input ligand: FMN 200 uM): 115 nM | apparent KD of MS2 coat protein (input ligand: none): 71.1 nM

AUGCCACAUGAGGAUCACCCAUGUGAGGAUAUGCUAGUAUUCCUAACGGCCGAUGCAGGCAGAAGGCGCUCGGG [Eternabot (L1) Solution 73] (Eterna round: R97, puzzle: Exclusion 1)
apparent KD of MS2 coat protein (input ligand: FMN 200 uM): 19.5 nM | apparent KD of MS2 coat protein (input ligand: none): 24.5 nM

UGUUGUCGCGUAGGAUAUGAGGAUCACCCAUAUAGAGGAUAUGAAAAGAAGGCUCUGAGGAUCACCCAGAAGGACGGGACAACU [pwkr exNG2 2xF5 2xFMN.24] (Eterna round: R96, puzzle: Exclusion NG 2)
apparent KD of MS2 coat protein (input ligand: FMN 200 uM): 1720 nM | apparent KD of MS2 coat protein [2]: 214 nM | apparent KD of MS2 coat protein (input ligand: none): 207 nM

GGUUGGCGAGGAUAUACAUGAGGAUCACCCAUGUGAGAGAAUAAGUGAGGAAAGAAAAGUAGAAGGCGCUGACG [Mat - Exclusion 3 - Mod of Salish D52] (puzzle: Exclusion 3)
apparent KD of MS2 coat protein [3]: 117 nM | apparent KD of MS2 coat protein [1]: 44.5 nM | apparent KD of MS2 coat protein [4]: 55.1 nM

UUUUUUGUUGUGAGGAUAUCGUUGUUGUUGUGGAUCGAGAAGGCACAUGAGGAUCACCCAUGUUUGUUGUGGUU [JR_BMOE4_Sub086] (Eterna round: R96, puzzle: Brourd's mod of Exclusion 4)
apparent KD of MS2 coat protein (input ligand: FMN 200 uM): 272 nM | apparent KD of MS2 coat protein [2]: 81.2 nM | apparent KD of MS2 coat protein (input ligand: none): 109 nM

UAUUGAGAGCAGGAUAUAUUCCUGAUGUAUGAAGUAGAAGGGCUCACAUGAGGAUCACCCAUGUGAUCCUGAAU [Mat - Exclusion 6 - Eli Mod - D5] (Eterna round: R97, puzzle: Exclusion 6)
apparent KD of MS2 coat protein (input ligand: FMN 200 uM): 15.5 nM | apparent KD of MS2 coat protein (input ligand: none): 14 nM

UUAGAUAGGUCAGGAUAUCGAUGAUUGAAUUGUAUGAUUUACAUGAGGAUCACCCAUGUUUUGUACGAGAAGGGACGUUAGUUU [JR_ExcNG2_Sub019] (Eterna round: R96, puzzle: Exclusion NG 2)
apparent KD of MS2 coat protein (input ligand: FMN 200 uM): 25.3 nM | apparent KD of MS2 coat protein [2]: 26.1 nM | apparent KD of MS2 coat protein (input ligand: none): 33.5 nM

CUGUACUGAGGAUAUACAUGAGGAUCACCCAUGUGUCCCAGCUAGGAAACUAGCAAAGGUAGAAGGCAGUACAG [Mat - Exclusion 3 - Eli Mod - D57] (Eterna round: R97, puzzle: Exclusion 3)
apparent KD of MS2 coat protein (input ligand: FMN 200 uM): 302 nM | apparent KD of MS2 coat protein (input ligand: none): 22.6 nM

GAAAAGGUAGGAUAUACGAAAAAAAAGGGUACAAAAAAAACACAUGAGGAUCACCCAUGUAGAAGGACCAAAAG [salish99_ex2_r3_063] (puzzle: Exclusion 2)
apparent KD of MS2 coat protein [3]: 36.8 nM | apparent KD of MS2 coat protein [1]: 25.6 nM | apparent KD of MS2 coat protein [4]: 20.8 nM

CAGUACUGAGGAUAUACAUGAGGAUCACCCAUGUGUUCCAGCUAGGAAACUAGCAAUAGUAGAAGGCAGUACUG [salish99_ex3_r3_090x] (puzzle: Exclusion 3)
apparent KD of MS2 coat protein [1]: 21.3 nM

UCAUACGGUGAGGAUAUCUCCACUAAAGUGUGUAGAGAAGGCGCUACAUGAGGAUCACCCAUGUUUAUGGGCAG [Ex-6 Malc#13] (Eterna round: R96, puzzle: Exclusion 6)
apparent KD of MS2 coat protein [2]: 236 nM

AAUUAAACAUAGGAUAUCGAAUUUAUUAUUUAACGAGAAGGAUGAACAUGAGGAUCACCCAUGUGGUAUCAUGG [Mat - Exclusion 6 - JL Mod - D23] (puzzle: Exclusion 6)
apparent KD of MS2 coat protein [3]: 333 nM | apparent KD of MS2 coat protein [1]: 197 nM | apparent KD of MS2 coat protein [4]: 213 nM

GUUAAGGUAGGAUAUACGAGAAUAUAGGGUAGAUAUAUAACACAUGAGGAUCACCCAUGUAGAAGGACCAAUUG [Mat - Exclusion 2 - Mod of my Tesla design - D57] (puzzle: Exclusion 2)
apparent KD of MS2 coat protein [1]: 33.1 nM
